According to patent publication US20100203559A1:
Numbering of substitutions follows the chain as printed.

B1: α-SNAP-25 monoclonal antibody 1D3B8 (antibody, V domains shown)
VH: QVKLQESGAELVKPGASVKISCKASGYIFTDHALHWVRQKPEQGLEWIGYIFPGNGNIEYNEKFKGKATLTADKSSSTAYMQLNSLTSGDSAMYFCKKMDYWGQGTTVTVSS
VL: DVLMTQTPLSLPVSLGDQASISCRSSQSIVHSNGNTYLEWYLQKPGQSPKLLIYKVSNRFSGVPDRFSGSGSGTDFTLKISRVEAEDLGVYYCFQGSHVPPTFGAGTKLELKR
B2: α-SNAP-25 monoclonal antibody 2C9B10 (antibody, V domains shown)
VH: B1 VH with I28T, A33S, L34I, R38K, E42G, I51L, I58F, Q82H, G89E, M93V
VL: DIQMTQSPASLSASVGETVTITCRTTENIYSYFVWSQQRQGKSPQLRVYNAKSLAEGVPSSFNVSVSGTQFSLKINSLQPEDFGTYHCQHHYGTPYTFGGGTRLEIRR
B3: α-SNAP-25 monoclonal antibody 2E2A6 (antibody, V domains shown)
VH: QVQLQQSDAELVKPGASVKISCRASGYTFTDHSIHWVKQQPGQGLEWIGYIFPGNGNIEYNDKFKGKATLTADKSSGTAYMQLNSLTSEDSAVYFCKRMGYWGQGTSVTVSS
VL: DVLMTQTPLTLSVTIGQPASISCKSSQSLLYTNGKTYLTWLFQRPGQSPKRLIYLVSELDSGVPDRFSGSGSGTDFTLEITRVEAEDLGVYYCLQSAHFPFTFGSGTKLEIKR
B4: α-SNAP-25 monoclonal antibody 3C1A5 (antibody, V domains shown)
VH: QVKLQESGAELVKPGASVKISCKASGYTFTDHSIHWVKQKPGQGLEWIGYLFPGNGNFEYNEKFKGKATLTADKSSSTVYMYLNSLTSEDSAVYFCKRMGYWGQGTTVTVSS
VL: B3 VL with L3V, Y31N, F42I, K50Q, E58K, E79K, T81S, A97S

Key:
[1] = biological target: SNAP-25134-197 peptide (human); assay: SPR (BIAcore 3000), peptide amine-coupled to CM5, antibody as analyte, 1:1 fit
[2] = biological target: SNAP-25134-197 peptide (human); assay: SPR (BIAcore 3000); by Table 9 the KD of 1D3B8 is the lower one
[3] = biological target: SNAP-25134-197 peptide (human); assay: SPR (BIAcore 3000), peptide amine-coupled to CM5, antibody as analyte, 1:1 fit; second of two runs, other chip
[4] = biological target: SNAP-25134-197 peptide (human); assay: SPR (BIAcore 3000), peptide amine-coupled to CM5, antibody as analyte, 1:1 fit; first of two runs

Row | Binder | Kd [1] [pM] | koff [1] [s⁻¹] | kon [1] [M⁻¹ s⁻¹] | fold difference of the equilibrium disassociation constant against MC-6050 and MC-6053 [2] [fold] | Kd [3] [pM] | koff [3] [s⁻¹] | kon [3] [M⁻¹ s⁻¹] | Kd [4] [pM] | koff [4] [s⁻¹] | kon [4] [M⁻¹ s⁻¹]
1 | B1 | 50 | 5.78e-05 | 1.06e+06 | 10 | – | – | – | – | – | –
2 | B2 | 27100 | 0.000311 | 11500 | – | – | – | – | – | – | –
3 | B3 | – | – | – | – | 405 | 6.74e-05 | 166000 | 90 | 0.000153 | 1.7e+06
4 | B4 | 1330 | 0.000288 | 217000 | – | – | – | – | – | – | –
